Target: GST-CypA (cyclophilin A) (human) (UniProt P62937)
Assay: radioligand binding

Chain of GST-CypA (cyclophilin A) (human) (P62937 whole entry): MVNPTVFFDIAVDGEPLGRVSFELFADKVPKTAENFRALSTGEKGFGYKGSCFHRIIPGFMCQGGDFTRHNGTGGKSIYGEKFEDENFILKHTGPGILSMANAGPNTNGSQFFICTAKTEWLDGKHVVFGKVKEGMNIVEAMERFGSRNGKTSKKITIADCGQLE

| Substance | Kd [µM] |
| --- | --- |
| NS5A Con1 D320E-His (full length) (natural protein) | 124 |
| full-length NS5A MD2b-1-His (genotype 2b) (natural protein) | 112 |

Source: paper PMC2884070
